This is an account of results in the supplement of paper PMC7877785.

This data set can be described thus: self-splicing fitness, log relative to wild type (ln ratio); higher = more splicing; Tetrahymena group I intron in knt gene, E. coli kanamycin selection, DiMSum; sequences stand for … in CUCUCU…GGAGGGAAAAGUUAUCAGGCAUGCACCUGGUAGCUAGUCUUUAAACCAAUAGAUUGCAUCGGUUUAAAAGGCAAGACCGUCAAAUUGCGGGAAAGGGGUCAACAGCCGUUCAGUACCAAGUCUCAGGGGAAACUUUGAGAUGGCCUUGCAAAGGGUAUGGUAAUAAGCUGACGGACAUGGUCCUAACCACGCAGCCAAGUCCUAAGUCAACAGAUCUUCUGUUGAUAUGGAUGCAGUUCACAGACUAAAUGUCGGUCGGGGAAGAUGUAUUCUUCUCAUAAGAUAUAGUCGGACCUCUCCUUAAUGGGAGCUAGCGGAUGAAGUGAUGCAACACUGGAGCCGCUGGGAACUAAUUUGUAUGCGAAAGUAUAUUGAUUAGUUUUGGAGUACUCGUGGUCG
The procedure, abridged:
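The eight P1ex-region nucleotides of an intron in the knt kanamycin-resistance gene on pET-22b(+) were all randomised and the library put into E. coli BL21(DE3). Six replicate transformations were grown overnight at 37°C or 30°C on LB agar with or without 25 μg/mL kanamycin, together with 100 μg/mL carbenicillin, 50 μM IPTG and 0.2% rhamnose. Colonies were pooled and amplicon-sequenced on an Illumina HiSeq 2500. Fitness from DiMSum is the error-weighted combination of wild-type-normalised replicate fold changes, kanamycin over none.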

± gives the uncertainty stated by the source.

In the case of AUACAGCAAUAUUACGAGUC, the “self-splicing fitness (ln)” value was -3.23 ± 0.19 (30 °C) and -2.57 ± 0.19 (37 °C). On the same counts, the results for AUACAGCAAUAUUACGAUUU are -0.0463 ± 0.053 and 0.498 ± 0.073. In the same order, the values of AUACAGCAAUAUUACGCACA are -0.789 ± 0.11 and 0.62 ± 0.12. On the same counts, the results for AUACAGCAAUAUUACGCAUG are -1.44 ± 0.094 and -0.421 ± 0.12.

Turning to AUACAGCAAUAUUACGCCCU, the “self-splicing fitness (ln)” value was -0.0578 ± 0.06 (30 °C) and -0.247 ± 0.072 (37 °C). In the same order, the values of AUACAGCAAUAUUACGCCGA are -1.98 ± 0.18 and -1.51 ± 0.19. On the same counts, the results for AUACAGCAAUAUUACGCCGU are -1.34 ± 0.099 and -0.0561 ± 0.1. In the same order, the values of AUACAGCAAUAUUACGCUAG are -1.61 ± 0.079 and -1.23 ± 0.096. For AUACAGCAAUAUUACGCUCC, the “self-splicing fitness (ln)” value is -1.47 ± 0.16 (30 °C) and -0.769 ± 0.21 (37 °C). In the same order, the values of AUACAGCAAUAUUACGGGCA are -0.996 ± 0.099 and -0.765 ± 0.1.

Take AUACAGCAAUAUUACGGUGA: the “self-splicing fitness (ln)” value (30 °C) was -0.847 ± 0.063 and the “self-splicing fitness (ln)” value (37 °C) worked out at 0.283 ± 0.077.

Regarding AUACAGCAAUAUUACGGUUU, the “self-splicing fitness (ln)” value (30 °C) was -0.703 ± 0.048 and the “self-splicing fitness (ln)” value (37 °C) was found to be 0.226 ± 0.059. On the same counts, the results for AUACAGCAAUAUUACGUAAU are -1.43 ± 0.085 and -0.584 ± 0.12. On the same counts, the results for AUACAGCAAUAUUACGUAUC are -4.19 ± 0.21 and -2.6 ± 0.17. On the same counts, the results for AUACAGCAAUAUUACGUGAA are -2.19 ± 0.077 and -1.08 ± 0.076. Turning to AUACAGCAAUAUUACGUGCG, the “self-splicing fitness (ln)” value was -0.886 ± 0.081 (30 °C) and -0.3 ± 0.091 (37 °C). In the same order, the values of AUACAGCAAUAUUACGUGGC are -3.22 ± 0.12 and -2.39 ± 0.15. On the same counts, the results for AUAGAGCAAUAUUACGAACG are -2.4 ± 0.21 and -0.83 ± 0.19. In the same order, the values of AUAGAGCAAUAUUACGAACU are -0.774 ± 0.13 and 0.227 ± 0.18.

Consider AUAGAGCAAUAUUACGAAUA, for which the “self-splicing fitness (ln)” value is -4.03 ± 0.47 (30 °C) and -2.1 ± 0.29 (37 °C).

As to AUAGAGCAAUAUUACGACGA, the “self-splicing fitness (ln)” value is -0.935 ± 0.093 (30 °C) and -0.479 ± 0.13 (37 °C). Take AUAGAGCAAUAUUACGACUG: the “self-splicing fitness (ln)” value runs as follows: (30 °C) -2.11 ± 0.13; (37 °C) -0.786 ± 0.18. On the same counts, the results for AUAGAGCAAUAUUACGCAAG are -2.97 ± 0.2 and -1.24 ± 0.22. In the same order, the values of AUAGAGCAAUAUUACGCUUC are -2.52 ± 0.24 and -1.47 ± 0.25. On the same counts, the results for AUAGAGCAAUAUUACGGGGU are -3.46 ± 0.21 and -3.53 ± 0.23. For the sequence AUAGAGCAAUAUUACGGUCC, the “self-splicing fitness (ln)” value (30 °C) was -2.61 ± 0.38. For the sequence AUAGAGCAAUAUUACGGUGG, the “self-splicing fitness (ln)” value (30 °C) was -1.24 ± 0.26. Regarding AUAGAGCAAUAUUACGUAAG, the “self-splicing fitness (ln)” value was -1.94 ± 0.22 (30 °C) and -1.34 ± 0.25 (37 °C). Take AUAGAGCAAUAUUACGUAUA: the “self-splicing fitness (ln)” value is -2.1 ± 0.19 (30 °C) and -0.371 ± 0.21 (37 °C). On to AUAGAGCAAUAUUACGUCGA, for which the “self-splicing fitness (ln)” value by setting is: (30 °C) -2.82 ± 0.19; (37 °C) -1.04 ± 0.17. On the same counts, the results for AUAGAGCAAUAUUACGUCUC are -0.924 ± 0.15 and -0.745 ± 0.16. In the same order, the values of AUAGAGCAAUAUUACGUUAU are -0.975 ± 0.089 and -0.177 ± 0.11. Regarding AUAGAGCAAUAUUACGUUGC, the “self-splicing fitness (ln)” value (30 °C) is -2.95 ± 0.2 and the “self-splicing fitness (ln)” value (37 °C) was -2.05 ± 0.26. Consider AUAUAGCAAUAUUACGAAAC, for which the “self-splicing fitness (ln)” value reads like this: (30 °C) -2.85 ± 0.29; (37 °C) -2.03 ± 0.34. In the case of AUAUAGCAAUAUUACGACUA, the “self-splicing fitness (ln)” value by setting is: (30 °C) -0.8 ± 0.3; (37 °C) -0.351 ± 0.29. On the same counts, the results for AUAUAGCAAUAUUACGAGCU are -2.13 ± 0.1 and -1.11 ± 0.1. Consider AUAUAGCAAUAUUACGAGGA, for which the “self-splicing fitness (ln)” value (37 °C) is -2.44 ± 0.38. As to AUAUAGCAAUAUUACGAGGU, the “self-splicing fitness (ln)” value is -3.66 ± 0.26 (30 °C) and -1.44 ± 0.15 (37 °C). In the same order, the values of AUAUAGCAAUAUUACGCAAU are -1.49 ± 0.17 and -0.77 ± 0.22. On the same counts, the results for AUAUAGCAAUAUUACGCAGG are -3.74 ± 0.31 and -1.69 ± 0.23.

Consider AUAUAGCAAUAUUACGCCGC, for which the “self-splicing fitness (ln)” value (30 °C) was -2.58 ± 0.49. As to AUAUAGCAAUAUUACGCCGG, the “self-splicing fitness (ln)” value (30 °C) was -3.65 ± 0.37 and the “self-splicing fitness (ln)” value (37 °C) is -0.796 ± 0.3. Take AUAUAGCAAUAUUACGCCUA: the “self-splicing fitness (ln)” value by setting is: (30 °C) -0.306 ± 0.17; (37 °C) -0.0941 ± 0.12. For AUAUAGCAAUAUUACGCCUG, the “self-splicing fitness (ln)” value is -2.24 ± 0.23 (30 °C) and -1.6 ± 0.24 (37 °C). In the same order, the values of AUAUAGCAAUAUUACGCGCA are -0.342 ± 0.15 and -0.724 ± 0.14.

AUAUAGCAAUAUUACGGAUG: the “self-splicing fitness (ln)” value runs as follows: (30 °C) -3.03 ± 0.25; (37 °C) -2.15 ± 0.28. In the same order, the values of AUAUAGCAAUAUUACGGCAA are -0.751 ± 0.18 and -0.989 ± 0.19. Consider AUAUAGCAAUAUUACGGCUG, for which the “self-splicing fitness (ln)” value is -0.816 ± 0.14 (30 °C) and 0.663 ± 0.19 (37 °C). In the same order, the values of AUAUAGCAAUAUUACGGGCC are -2.81 ± 0.3 and -2.86 ± 0.43. On the same counts, the results for AUAUAGCAAUAUUACGGGUU are -3.43 ± 0.14 and -2.51 ± 0.14. In the same order, the values of AUAUAGCAAUAUUACGGUAU are -3.75 ± 0.32 and -1.45 ± 0.2.

With AUAUAGCAAUAUUACGGUGU, the “self-splicing fitness (ln)” value was -2.03 ± 0.16 (30 °C) and -1.38 ± 0.17 (37 °C). In the same order, the values of AUAUAGCAAUAUUACGUCAU are -2.43 ± 0.14 and -1.15 ± 0.14. In the same order, the values of AUAUAGCAAUAUUACGUUUG are -2.71 ± 0.23 and -2.21 ± 0.26. In the same order, the values of AUCAAGCAAUAUUACGAAAA are -2.84 ± 0.36 and -2.03 ± 0.27.

As for AUCAAGCAAUAUUACGAAUA, the “self-splicing fitness (ln)” value by setting is: (30 °C) -2.36 ± 0.21; (37 °C) -1.44 ± 0.17. On to AUCAAGCAAUAUUACGACAU, for which the “self-splicing fitness (ln)” value (30 °C) was determined as 0.105 ± 0.011 and the “self-splicing fitness (ln)” value (37 °C) was 0.377 ± 0.032. For AUCAAGCAAUAUUACGACCC, the “self-splicing fitness (ln)” value was -1.34 ± 0.17 (30 °C) and -0.0224 ± 0.3 (37 °C). On the same counts, the results for AUCAAGCAAUAUUACGACUG are -1.59 ± 0.11 and -1.27 ± 0.13.

For AUCAAGCAAUAUUACGAGAC, the “self-splicing fitness (ln)” value is, setting by setting: (30 °C) -3.01 ± 0.3; (37 °C) -1.87 ± 0.19. In the same order, the values of AUCAAGCAAUAUUACGAUCU are -1.37 ± 0.1 and -0.575 ± 0.12. On to AUCAAGCAAUAUUACGAUUA, for which the “self-splicing fitness (ln)” value by setting is: (30 °C) -1.28 ± 0.11; (37 °C) -0.622 ± 0.13. On the same counts, the results for AUCAAGCAAUAUUACGCAAC are -2.61 ± 0.14 and -2.37 ± 0.22. On the same counts, the results for AUCAAGCAAUAUUACGCGUC are -3.45 ± 0.23 and -1.41 ± 0.16. Take AUCAAGCAAUAUUACGCUCC: the “self-splicing fitness (ln)” value (30 °C) is -0.122 ± 0.16 and the “self-splicing fitness (ln)” value (37 °C) was -1.04 ± 0.17. Turning to AUCAAGCAAUAUUACGCUUC, the “self-splicing fitness (ln)” value (37 °C) was -2.01 ± 0.46. For AUCAAGCAAUAUUACGGAUU, the “self-splicing fitness (ln)” value (30 °C) is -3.31 ± 0.17 and the “self-splicing fitness (ln)” value (37 °C) is -1.2 ± 0.14. As to AUCAAGCAAUAUUACGGCAA, the “self-splicing fitness (ln)” value runs as follows: (30 °C) -0.819 ± 0.088; (37 °C) -0.213 ± 0.097. In the same order, the values of AUCAAGCAAUAUUACGGCAC are -1.67 ± 0.1 and -0.0454 ± 0.16. On the same counts, the results for AUCAAGCAAUAUUACGGGAC are -2.23 ± 0.081 and -1.11 ± 0.1. In the same order, the values of AUCAAGCAAUAUUACGUACA are -1.21 ± 0.1 and -0.544 ± 0.12. Turning to AUCAAGCAAUAUUACGUACC, the “self-splicing fitness (ln)” value is -0.82 ± 0.12 (30 °C) and -0.953 ± 0.17 (37 °C). On the same counts, the results for AUCAAGCAAUAUUACGUACU are -0.173 ± 0.057 and 0.183 ± 0.066. On the same counts, the results for AUCAAGCAAUAUUACGUAGC are -4.82 ± 0.45 and -2.1 ± 0.31. On the same counts, the results for AUCAAGCAAUAUUACGUCCU are -0.37 ± 0.088 and 0.533 ± 0.12. Take AUCAAGCAAUAUUACGUGUA: the “self-splicing fitness (ln)” value (30 °C) was -2.39 ± 0.14 and the “self-splicing fitness (ln)” value (37 °C) was -1.42 ± 0.12.
